Laboratory results from patent publication US20250215412A1 (NOVOZYMES A S, published 2025).

T1: Chryseobacterium sp-62563 deamidase polypeptide (second polypeptide, deamidase domain), wildtype (Chryseobacterium sp-62563)
T1 sequence: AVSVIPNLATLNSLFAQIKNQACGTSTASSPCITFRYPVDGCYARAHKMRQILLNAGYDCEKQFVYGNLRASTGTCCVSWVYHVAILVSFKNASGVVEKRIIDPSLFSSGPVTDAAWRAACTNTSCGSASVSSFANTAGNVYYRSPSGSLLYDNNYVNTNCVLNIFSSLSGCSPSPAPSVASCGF


Biological target: T1, Chryseobacterium sp-62563 deamidase polypeptide (second polypeptide, deamidase domain), wildtype (Chryseobacterium sp-62563)
Assay: cell-based or functional assay

Row | Leakage activity [%] | Relative activity of maturated deamidase (% initial rate) | Binder
1 | 0 | 53 | Chryseobacterium sp-62563 propeptide K21G (protein) NQDPNLVAKESNETAMKDFGGTVPVGIEKEDGKFKISFMVTAQPYEIKDSKENAAYISMIKTAVENETPIHVFLKANTNEIAKVDKATDDDIRYFKSVFTKEVKEENRK
2 | 0 | 29 | Chryseobacterium sp-62563 propeptide K109G (protein) NQDPNLVAKESNETAMKDFGKTVPVGIEKEDGKFKISFMVTAQPYEIKDSKENAAYISMIKTAVENETPIHVFLKANTNEIAKVDKATDDDIRYFKSVFTKEVKEENRG
3 | 0 | 27 | Chryseobacterium sp-62563 propeptide M16G (protein) NQDPNLVAKESNETAGKDFGKTVPVGIEKEDGKFKISFMVTAQPYEIKDSKENAAYISMIKTAVENETPIHVFLKANTNEIAKVDKATDDDIRYFKSVFTKEVKEENRK
4 | – | 45 | Chryseobacterium sp-62563 propeptide K101E (protein) NQDPNLVAKESNETAMKDFGKTVPVGIEKEDGKFKISFMVTAQPYEIKDSKENAAYISMIKTAVENETPIHVFLKANTNEIAKVDKATDDDIRYFKSVFTEEVKEENRK
5 | – | 75 | Chryseobacterium sp-62563 propeptide T100E (protein) NQDPNLVAKESNETAMKDFGKTVPVGIEKEDGKFKISFMVTAQPYEIKDSKENAAYISMIKTAVENETPIHVFLKANTNEIAKVDKATDDDIRYFKSVFEKEVKEENRK
6 | – | 29 | Chryseobacterium sp-62563 propeptide K101S (protein) NQDPNLVAKESNETAMKDFGKTVPVGIEKEDGKFKISFMVTAQPYEIKDSKENAAYISMIKTAVENETPIHVFLKANTNEIAKVDKATDDDIRYFKSVFTSEVKEENRK
7 | 0 | – | Chryseobacterium sp-62563 propeptide E10P (protein) NQDPNLVAKPSNETAMKDFGKTVPVGIEKEDGKFKISFMVTAQPYEIKDSKENAAYISMIKTAVENETPIHVFLKANTNEIAKVDKATDDDIRYFKSVFTKEVKEENRK
8 | 0 | 27 | Chryseobacterium sp-62563 propeptide N1C (protein) CQDPNLVAKESNETAMKDFGKTVPVGIEKEDGKFKISFMVTAQPYEIKDSKENAAYISMIKTAVENETPIHVFLKANTNEIAKVDKATDDDIRYFKSVFTKEVKEENRK
9 | 0 | – | Chryseobacterium sp-62563 propeptide R108N (protein) NQDPNLVAKESNETAMKDFGKTVPVGIEKEDGKFKISFMVTAQPYEIKDSKENAAYISMIKTAVENETPIHVFLKANTNEIAKVDKATDDDIRYFKSVFTKEVKEENNK
10 | – | 29 | Chryseobacterium sp-62563 propeptide K101N (protein) NQDPNLVAKESNETAMKDFGKTVPVGIEKEDGKFKISFMVTAQPYEIKDSKENAAYISMIKTAVENETPIHVFLKANTNEIAKVDKATDDDIRYFKSVFTNEVKEENRK
11 | – | 54 | Chryseobacterium sp-62563 propeptide K101W (protein) NQDPNLVAKESNETAMKDFGKTVPVGIEKEDGKFKISFMVTAQPYEIKDSKENAAYISMIKTAVENETPIHVFLKANTNEIAKVDKATDDDIRYFKSVFTWEVKEENRK
12 | – | 46 | Chryseobacterium sp-62563 propeptide K101D (protein) NQDPNLVAKESNETAMKDFGKTVPVGIEKEDGKFKISFMVTAQPYEIKDSKENAAYISMIKTAVENETPIHVFLKANTNEIAKVDKATDDDIRYFKSVFTDEVKEENRK
13 | 0 | – | Chryseobacterium sp-62563 propeptide E13C (protein) NQDPNLVAKESNCTAMKDFGKTVPVGIEKEDGKFKISFMVTAQPYEIKDSKENAAYISMIKTAVENETPIHVFLKANTNEIAKVDKATDDDIRYFKSVFTKEVKEENRK
14 | – | 41 | Chryseobacterium sp-62563 propeptide K101L (protein) NQDPNLVAKESNETAMKDFGKTVPVGIEKEDGKFKISFMVTAQPYEIKDSKENAAYISMIKTAVENETPIHVFLKANTNEIAKVDKATDDDIRYFKSVFTLEVKEENRK
15 | 0 | – | Chryseobacterium sp-62563 propeptide G20D (protein) NQDPNLVAKESNETAMKDFDKTVPVGIEKEDGKFKISFMVTAQPYEIKDSKENAAYISMIKTAVENETPIHVFLKANTNEIAKVDKATDDDIRYFKSVFTKEVKEENRK
16 | 0 | 51 | Chryseobacterium sp-62563 propeptide D18R (protein) NQDPNLVAKESNETAMKRFGKTVPVGIEKEDGKFKISFMVTAQPYEIKDSKENAAYISMIKTAVENETPIHVFLKANTNEIAKVDKATDDDIRYFKSVFTKEVKEENRK

Row | Leakage activity [%] | Relative activity of maturated deamidase (% initial rate) | Binder
17 | 0 | 62 | Chryseobacterium sp-62563 propeptide D18G (protein) NQDPNLVAKESNETAMKGFGKTVPVGIEKEDGKFKISFMVTAQPYEIKDSKENAAYISMIKTAVENETPIHVFLKANTNEIAKVDKATDDDIRYFKSVFTKEVKEENRK
18 | – | 38 | Chryseobacterium sp-62563 propeptide K101C (protein) NQDPNLVAKESNETAMKDFGKTVPVGIEKEDGKFKISFMVTAQPYEIKDSKENAAYISMIKTAVENETPIHVFLKANTNEIAKVDKATDDDIRYFKSVFTCEVKEENRK
19 | 0 | – | Chryseobacterium sp-62563 propeptide K109C (protein) NQDPNLVAKESNETAMKDFGKTVPVGIEKEDGKFKISFMVTAQPYEIKDSKENAAYISMIKTAVENETPIHVFLKANTNEIAKVDKATDDDIRYFKSVFTKEVKEENRC
20 | – | 34 | Chryseobacterium sp-62563 propeptide K101G (protein) NQDPNLVAKESNETAMKDFGKTVPVGIEKEDGKFKISFMVTAQPYEIKDSKENAAYISMIKTAVENETPIHVFLKANTNEIAKVDKATDDDIRYFKSVFTGEVKEENRK
21 | – | 38 | Chryseobacterium sp-62563 propeptide K101I (protein) NQDPNLVAKESNETAMKDFGKTVPVGIEKEDGKFKISFMVTAQPYEIKDSKENAAYISMIKTAVENETPIHVFLKANTNEIAKVDKATDDDIRYFKSVFTIEVKEENRK
22 | 0 | – | Chryseobacterium sp-62563 propeptide T14P (protein) NQDPNLVAKESNEPAMKDFGKTVPVGIEKEDGKFKISFMVTAQPYEIKDSKENAAYISMIKTAVENETPIHVFLKANTNEIAKVDKATDDDIRYFKSVFTKEVKEENRK
23 | – | 79 | Chryseobacterium sp-62563 propeptide T100Q (protein) NQDPNLVAKESNETAMKDFGKTVPVGIEKEDGKFKISFMVTAQPYEIKDSKENAAYISMIKTAVENETPIHVFLKANTNEIAKVDKATDDDIRYFKSVFQKEVKEENRK
24 | – | 46 | Chryseobacterium sp-62563 propeptide K101Y (protein) NQDPNLVAKESNETAMKDFGKTVPVGIEKEDGKFKISFMVTAQPYEIKDSKENAAYISMIKTAVENETPIHVFLKANTNEIAKVDKATDDDIRYFKSVFTYEVKEENRK
25 | 3 | 71 | Chryseobacterium sp-62563 propeptide F19P (protein) NQDPNLVAKESNETAMKDPGKTVPVGIEKEDGKFKISFMVTAQPYEIKDSKENAAYISMIKTAVENETPIHVFLKANTNEIAKVDKATDDDIRYFKSVFTKEVKEENRK
26 | 0 | 34 | Chryseobacterium sp-62563 propeptide D18M (protein) NQDPNLVAKESNETAMKMFGKTVPVGIEKEDGKFKISFMVTAQPYEIKDSKENAAYISMIKTAVENETPIHVFLKANTNEIAKVDKATDDDIRYFKSVFTKEVKEENRK
27 | – | 29 | Chryseobacterium sp-62563 propeptide K101M (protein) NQDPNLVAKESNETAMKDFGKTVPVGIEKEDGKFKISFMVTAQPYEIKDSKENAAYISMIKTAVENETPIHVFLKANTNEIAKVDKATDDDIRYFKSVFTMEVKEENRK
28 | – | 36 | Chryseobacterium sp-62563 propeptide K101A (protein) NQDPNLVAKESNETAMKDFGKTVPVGIEKEDGKFKISFMVTAQPYEIKDSKENAAYISMIKTAVENETPIHVFLKANTNEIAKVDKATDDDIRYFKSVFTAEVKEENRK
29 | 0 | 66 | Chryseobacterium sp-62563 propeptide D18P (protein) NQDPNLVAKESNETAMKPFGKTVPVGIEKEDGKFKISFMVTAQPYEIKDSKENAAYISMIKTAVENETPIHVFLKANTNEIAKVDKATDDDIRYFKSVFTKEVKEENRK
30 | 5 | 37 | Chryseobacterium sp-62563 propeptide D18K (protein) NQDPNLVAKESNETAMKKFGKTVPVGIEKEDGKFKISFMVTAQPYEIKDSKENAAYISMIKTAVENETPIHVFLKANTNEIAKVDKATDDDIRYFKSVFTKEVKEENRK
31 | – | 36 | Chryseobacterium sp-62563 propeptide K101P (protein) NQDPNLVAKESNETAMKDFGKTVPVGIEKEDGKFKISFMVTAQPYEIKDSKENAAYISMIKTAVENETPIHVFLKANTNEIAKVDKATDDDIRYFKSVFTPEVKEENRK
32 | – | 33 | Chryseobacterium sp-62563 propeptide F19L (protein) NQDPNLVAKESNETAMKDLGKTVPVGIEKEDGKFKISFMVTAQPYEIKDSKENAAYISMIKTAVENETPIHVFLKANTNEIAKVDKATDDDIRYFKSVFTKEVKEENRK
